The nature of data set [1]: IP/IB, baseline. The following applies: glycan lost; control: WT NF-L.
Data set [2] can be described thus: IFA of co-assembled filaments, SW13 vim− cells. The following applies: glycan lost; control: WT NF-L.
Data set [3] in a line: live-cell imaging, rat hippocampal neuron axons. The following applies: glycan lost; control: WT NF-L.
The nature of data set [4]: differential extraction, NEFL−/− 293T, no OGT. The following applies: glycan lost; control: WT NF-L without OGT.
Data set [5] in a line: IP/IB. The following applies: glycan gained; control: WT NF-L without OGT.
Data set [6] in a line: IFA of filaments, NEFL−/− SH-SY5Y. The following applies: glycan gained; control: WT NF-L without OGT.
Data set [7] can be described thus: differential extraction, urea-fraction NF-L, 293T. The following applies: glycan gained; control: WT NF-L without OGT.

B1: neurofilament-light (NF-L): NF-L4A (protein)
parent chain: MSSFSYEPYYSTSYKRRYVETPRVHISSVRSGYSTARSAYSSYSAPVSSSLSVRRSYSSSSGSLMPSLENLDLSQVAAISNDLKSIRTQEKAQLQDLNDRFASFIERVHELEQQNKVLEAELLVLRQKHSEPSRFRALYEQEIRDLRLAAEDATNEKQALQGEREGLEETLRNLQARYEEEVLSREDAEGRLMEARKGADEAALARAELEKRIDSLMDEISFLKKVHEEEIAELQAQIQYAQISVEMDVTKPDLSAALKDIRAQYEKLAAKNMQNAEEWFKSRFTVLTESAAKNTDAVRAAKDEVSESRRLLKAKTLEIEACRGMNEALEKQLQELEDKQNADISAMQDTINKLENELRTTKSEMARYLKEYQDLLNVKMALDIEIAAYRKLLEGEETRLSFTSVGSITSGYSQSSQVFGRSAYGGLQTSSYLMSTRSFPSYYTSHVQEEQIEVEETIEAAKAEEAKDEPPSEGEAEEEEKDKEEAEEEEAAEEEEAAKEESEEAKEEEEGGEGEEGEETKEAEEEEKKVEGAGEEQAAKKKD
For the protein B1, the “other: NF-L phosphorylation” value in data set [1] is “increases”. In addition, the oligomerisation result in data set [2] is “decreases”. Moreover, the “other: suppression of mitochondrial motility” value in data set [3] was “abolishes”.

B2: neurofilament-light (NF-L): NF-L5A (protein)
parent chain: MSSFSYEPYYSTSYKRRYVETPRVHISSVRSGYSTARSAYSSYSAPVSSSLSVRRSYSSSSGSLMPSLENLDLSQVAAISNDLKSIRTQEKAQLQDLNDRFASFIERVHELEQQNKVLEAELLVLRQKHSEPSRFRALYEQEIRDLRLAAEDATNEKQALQGEREGLEETLRNLQARYEEEVLSREDAEGRLMEARKGADEAALARAELEKRIDSLMDEISFLKKVHEEEIAELQAQIQYAQISVEMDVTKPDLSAALKDIRAQYEKLAAKNMQNAEEWFKSRFTVLTESAAKNTDAVRAAKDEVSESRRLLKAKTLEIEACRGMNEALEKQLQELEDKQNADISAMQDTINKLENELRTTKSEMARYLKEYQDLLNVKMALDIEIAAYRKLLEGEETRLSFTSVGSITSGYSQSSQVFGRSAYGGLQTSSYLMSTRSFPSYYTSHVQEEQIEVEETIEAAKAEEAKDEPPSEGEAEEEEKDKEEAEEEEAAEEEEAAKEESEEAKEEEEGGEGEEGEETKEAEEEEKKVEGAGEEQAAKKKD
Turning to B2, the “other: NF-L phosphorylation” value in data set [1] was “increases”.

B3: neurofilament-light (NF-L): T21A (protein)
parent chain: MSSFSYEPYYSTSYKRRYVETPRVHISSVRSGYSTARSAYSSYSAPVSSSLSVRRSYSSSSGSLMPSLENLDLSQVAAISNDLKSIRTQEKAQLQDLNDRFASFIERVHELEQQNKVLEAELLVLRQKHSEPSRFRALYEQEIRDLRLAAEDATNEKQALQGEREGLEETLRNLQARYEEEVLSREDAEGRLMEARKGADEAALARAELEKRIDSLMDEISFLKKVHEEEIAELQAQIQYAQISVEMDVTKPDLSAALKDIRAQYEKLAAKNMQNAEEWFKSRFTVLTESAAKNTDAVRAAKDEVSESRRLLKAKTLEIEACRGMNEALEKQLQELEDKQNADISAMQDTINKLENELRTTKSEMARYLKEYQDLLNVKMALDIEIAAYRKLLEGEETRLSFTSVGSITSGYSQSSQVFGRSAYGGLQTSSYLMSTRSFPSYYTSHVQEEQIEVEETIEAAKAEEAKDEPPSEGEAEEEEKDKEEAEEEEAAEEEEAAKEESEEAKEEEEGGEGEEGEETKEAEEEEKKVEGAGEEQAAKKKD
For B3, in data set [4], the oligomerisation result is reported as “no change”.

B4: neurofilament-light (NF-L): OGT co-expression (protein)
parent chain: MSSFSYEPYYSTSYKRRYVETPRVHISSVRSGYSTARSAYSSYSAPVSSSLSVRRSYSSSSGSLMPSLENLDLSQVAAISNDLKSIRTQEKAQLQDLNDRFASFIERVHELEQQNKVLEAELLVLRQKHSEPSRFRALYEQEIRDLRLAAEDATNEKQALQGEREGLEETLRNLQARYEEEVLSREDAEGRLMEARKGADEAALARAELEKRIDSLMDEISFLKKVHEEEIAELQAQIQYAQISVEMDVTKPDLSAALKDIRAQYEKLAAKNMQNAEEWFKSRFTVLTESAAKNTDAVRAAKDEVSESRRLLKAKTLEIEACRGMNEALEKQLQELEDKQNADISAMQDTINKLENELRTTKSEMARYLKEYQDLLNVKMALDIEIAAYRKLLEGEETRLSFTSVGSITSGYSQSSQVFGRSAYGGLQTSSYLMSTRSFPSYYTSHVQEEQIEVEETIEAAKAEEAKDEPPSEGEAEEEEKDKEEAEEEEAAEEEEAAKEESEEAKEEEEGGEGEEGEETKEAEEEEKKVEGAGEEQAAKKKD
As for B4, in data set [5], the “other: NF-L phosphorylation” value is reported as “decreases”. Further, the oligomerisation entry in data set [6] and in data set [7] was “decreases” each time.

B5: neurofilament-light (NF-L): S34A (protein)
parent chain: MSSFSYEPYYSTSYKRRYVETPRVHISSVRSGYSTARSAYSSYSAPVSSSLSVRRSYSSSSGSLMPSLENLDLSQVAAISNDLKSIRTQEKAQLQDLNDRFASFIERVHELEQQNKVLEAELLVLRQKHSEPSRFRALYEQEIRDLRLAAEDATNEKQALQGEREGLEETLRNLQARYEEEVLSREDAEGRLMEARKGADEAALARAELEKRIDSLMDEISFLKKVHEEEIAELQAQIQYAQISVEMDVTKPDLSAALKDIRAQYEKLAAKNMQNAEEWFKSRFTVLTESAAKNTDAVRAAKDEVSESRRLLKAKTLEIEACRGMNEALEKQLQELEDKQNADISAMQDTINKLENELRTTKSEMARYLKEYQDLLNVKMALDIEIAAYRKLLEGEETRLSFTSVGSITSGYSQSSQVFGRSAYGGLQTSSYLMSTRSFPSYYTSHVQEEQIEVEETIEAAKAEEAKDEPPSEGEAEEEEKDKEEAEEEEAAEEEEAAKEESEEAKEEEEGGEGEEGEETKEAEEEEKKVEGAGEEQAAKKKD
Take B5: in data set [4], the oligomerisation entry was “no change”.

B6: neurofilament-light (NF-L): S48A (protein)
parent chain: MSSFSYEPYYSTSYKRRYVETPRVHISSVRSGYSTARSAYSSYSAPVSSSLSVRRSYSSSSGSLMPSLENLDLSQVAAISNDLKSIRTQEKAQLQDLNDRFASFIERVHELEQQNKVLEAELLVLRQKHSEPSRFRALYEQEIRDLRLAAEDATNEKQALQGEREGLEETLRNLQARYEEEVLSREDAEGRLMEARKGADEAALARAELEKRIDSLMDEISFLKKVHEEEIAELQAQIQYAQISVEMDVTKPDLSAALKDIRAQYEKLAAKNMQNAEEWFKSRFTVLTESAAKNTDAVRAAKDEVSESRRLLKAKTLEIEACRGMNEALEKQLQELEDKQNADISAMQDTINKLENELRTTKSEMARYLKEYQDLLNVKMALDIEIAAYRKLLEGEETRLSFTSVGSITSGYSQSSQVFGRSAYGGLQTSSYLMSTRSFPSYYTSHVQEEQIEVEETIEAAKAEEAKDEPPSEGEAEEEEKDKEEAEEEEAAEEEEAAKEESEEAKEEEEGGEGEEGEETKEAEEEEKKVEGAGEEQAAKKKD
For B6, the oligomerisation entry in data set [4] is on record as “no change”.

B7: neurofilament-light (NF-L): S431A (protein)
parent chain: MSSFSYEPYYSTSYKRRYVETPRVHISSVRSGYSTARSAYSSYSAPVSSSLSVRRSYSSSSGSLMPSLENLDLSQVAAISNDLKSIRTQEKAQLQDLNDRFASFIERVHELEQQNKVLEAELLVLRQKHSEPSRFRALYEQEIRDLRLAAEDATNEKQALQGEREGLEETLRNLQARYEEEVLSREDAEGRLMEARKGADEAALARAELEKRIDSLMDEISFLKKVHEEEIAELQAQIQYAQISVEMDVTKPDLSAALKDIRAQYEKLAAKNMQNAEEWFKSRFTVLTESAAKNTDAVRAAKDEVSESRRLLKAKTLEIEACRGMNEALEKQLQELEDKQNADISAMQDTINKLENELRTTKSEMARYLKEYQDLLNVKMALDIEIAAYRKLLEGEETRLSFTSVGSITSGYSQSSQVFGRSAYGGLQTSSYLMSTRSFPSYYTSHVQEEQIEVEETIEAAKAEEAKDEPPSEGEAEEEEKDKEEAEEEEAAEEEEAAKEESEEAKEEEEGGEGEEGEETKEAEEEEKKVEGAGEEQAAKKKD
As to B7, in data set [4], the oligomerisation entry is given as “no change”.

B8: neurofilament-light (NF-L): S27A (protein)
parent chain: MSSFSYEPYYSTSYKRRYVETPRVHISSVRSGYSTARSAYSSYSAPVSSSLSVRRSYSSSSGSLMPSLENLDLSQVAAISNDLKSIRTQEKAQLQDLNDRFASFIERVHELEQQNKVLEAELLVLRQKHSEPSRFRALYEQEIRDLRLAAEDATNEKQALQGEREGLEETLRNLQARYEEEVLSREDAEGRLMEARKGADEAALARAELEKRIDSLMDEISFLKKVHEEEIAELQAQIQYAQISVEMDVTKPDLSAALKDIRAQYEKLAAKNMQNAEEWFKSRFTVLTESAAKNTDAVRAAKDEVSESRRLLKAKTLEIEACRGMNEALEKQLQELEDKQNADISAMQDTINKLENELRTTKSEMARYLKEYQDLLNVKMALDIEIAAYRKLLEGEETRLSFTSVGSITSGYSQSSQVFGRSAYGGLQTSSYLMSTRSFPSYYTSHVQEEQIEVEETIEAAKAEEAKDEPPSEGEAEEEEKDKEEAEEEEAAEEEEAAKEESEEAKEEEEGGEGEEGEETKEAEEEEKKVEGAGEEQAAKKKD
For the protein B8, the oligomerisation entry in data set [4] is reported as “no change”.

The record behind these values is article PMC10582078.
